Entries after “also recorded” stand apart in the source; their conditions may differ.
Experiments:
Parental U2OS = assay: Flow cytometry binding to parental cells; conditions: cell culture supernatant containing expressed IgG, anti-Human Fc detection
Procedure: (§1) Briefly, a cell line expressing functionally validated CXCR1 derived from U2OS cells was obtained from DiscoveRx and cultured per manufacturer's instructions (Cat#93-0226C3, DiscoveRx Corporation, Freemont, Calif.). The parental cell line U20S was obtained from ATCC and cultured under the same conditions as the CXCR1 cells. Cell culture supernatants from Example 2 above were then tested for binding to cells by flow cytometry. The adherent U20S or CXCR1-U20S cells were dissociated with Accutase (Innovative Cell Technologies, Inc., San Diego, Calif.), neutralized with an equal volume of media containing 10% serum, centrifuged at 1000 g, and resuspended in PBS with 2% BSA. Next, cells were dispensed into microtiter plates to achieve between 30,000 to 300,000 cells per well, centrifuged again, and resuspended in cell culture supernatant containing expressed IgG, or a dilution of IgG-containing cell culture supernatant. A fluorescent-conjugated anti-Human Fc antibody was used to detect binding of the expressedBLV1H12-IL8 fusion proteins to cells.

CXCR1-U2OS = target: T1, CXCR1-U2OS (Homo sapiens, UniProt P25024); assay: Flow cytometry binding to CXCR1 expressing cells
T1 construct: host or cells: U2OS-derived CXCR1 cell line, purchased
T1 sequence (P25024 1-350): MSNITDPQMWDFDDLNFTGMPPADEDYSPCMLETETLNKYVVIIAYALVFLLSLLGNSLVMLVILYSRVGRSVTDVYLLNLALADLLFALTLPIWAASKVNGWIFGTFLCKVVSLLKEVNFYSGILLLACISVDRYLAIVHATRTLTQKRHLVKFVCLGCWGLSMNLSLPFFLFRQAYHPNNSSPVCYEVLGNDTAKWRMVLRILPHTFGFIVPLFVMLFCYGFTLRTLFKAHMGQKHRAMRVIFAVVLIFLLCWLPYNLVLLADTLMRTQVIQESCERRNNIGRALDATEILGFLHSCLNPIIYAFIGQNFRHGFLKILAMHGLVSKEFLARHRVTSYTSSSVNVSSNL
Procedure: as §1

Mouse NFS-60 cells = assay: Proliferation assay on mouse NFS-60 cells (AlamarBlue); format: cell-based; conditions: 72 hours
Procedure: Mouse NFS-60 cells were obtained from American Type Culture Collection (ATCC), VA, and cultured in RPMI-1640 medium supplemented with 10% fetal bovine serum (FBS), 0.05 mM 2-mercapoethanol and 62 ng/ml human macrophage colony stimulating factor (M-CSF). For proliferation assay, mouse NFS-60 cells were washed three times with RPMI-1640 medium and resuspended in RPMI-1640 medium with 10% FBS and 0.05 mM 2-mercapoethanol at a density of 1.5×10^5 cells/ml. In 96-well plates, 100 μl of cell suspension was added into each well, followed by the addition of varied concentrations of bGCSF, BLV1H12 antibody, and the immunoglobulin constructs described herein, Equal volume of PBS buffer was added into the control wells. The plates were incubated at 37° C. in a 5% CO2 incubator for 72 hours. Cells were then treated with AlamarBlue (Invitrogen) ( 1/10 volume of cell suspension) for 4 hours at 37° C. Fluorescence at 595 nm for each well was read to indicate the cell viability.

mice neutrophils = assay: Neutrophils counts in mice; format: in vivo; conditions: mice blood, 10th day post-injection, neutrophils among white blood cells
Procedure: On the 10th day after injection of BLV1H12-bGCSF fusion antibodies into mice for PK study, blood samples were drawn from the mice and stained using the Diff Quick Staining Kit (Thermo Fisher Scientific, IL). Neutrophils and white blood cells were counted under microscope and the percentages of neutrophils were analyzed. FIGS. 12A-12B and Table 12 show proliferative activities of BLV1H12-bGCSF fusion antibodies on mice neutrophils that are blood stained and counted at the 10th day post-injection.

[1] = Pharmacokinetics of BLV1H12-bGCSF fusion antibodies in mice; format: in vivo; conditions: BALB/c mice, 70 μg injected
Procedure: For PK study in mice, 70 μg of the immunoglobulin constructs described herein were injected into 3 BALB/c mice per group. Blood samples were drawn from time 0 to 14 days with extended intervals and analyzed by ELISA using anti-human IgG Fc antibody with horseradish peroxidase (HRP) labeled (KPL) and anti-6×His antibody with HRP labeled (Clontech). Data were normalized by taking maximal concentration at the first time point (30 min).

Human mPB CD34+ cells = assay: Proliferative activity on human granulocyte progenitors (flow cytometry); format: cell-based; conditions: 7 days
Procedure: Human mPB CD34^+ cells were purchased from AllCells. Cells were resuspended in HSC expansion medium (StemSpan SFEM, StemCell Technologies) supplemented with 1× antibiotics and the following recombinant human cytokines thrombopoietin, IL6, Flt3 ligand, and stem cell factor (100 ng/mL, R & D Systems), then plated in 96-well plates (1000 cells per well), with varied concentrations of BLV1H12-bGCSF fusion antibodies. Cells were cultured for 7 days at 37° C. in a 5% CO2 incubator, then analyzed by flow cytometry to measure cell number and expression of CD45ra and CD41. Cells were stained in staining medium (HBSS supplemented with 2% FBS and 2 mM EDTA) at 4° C. for 1 h with PECy7 anti-CD45ra and eFluor 450 anti-CD41 (eBiosciences), then washed with staining medium and analyzed. Multicolor analysis for cell phenotyping was performed on a LSR II flow cytometer (Becton Dickinson). FIGS. 10A-10E and Tables 9-10 show the human granulocyte progenitor cell proliferative activities of the Ab-GCSF fusion antibodies.

[2] = system: NS2-3 non-structural proteins of BVDV; assay: Immunocytometric analysis of HEK 293A cells transfected with BVDV antigens; format: binding; conditions: 10 μg/ml antibody
Procedure: Additionally, binding of the chimeric recombinant antibodies to BVDV antigens was evaluated by immunocytometric analysis of transfected human embryonic kidney (HEK) 293A cells (Invitrogen), as previously described (see, e.g., Njongmeta et al. (2012) Vaccine 30:1624-1635). Briefly, HEK 293A monolayers grown in 6-well tissue culture plates were transfected with 2 μg/well of plasmid (pcDNA3.3, Invitrogen) encoding BVDV antigens (N^pro, E2, or non-structural proteins NS2-3) using Lipofectamine 2000 reagent (Invitrogen), and incubated for 48 hr at 37° C. with 5% CO2. The monolayers were fixed with ice-cold 100% methanol for 10 minutes, rinsed with PBS, and after blocking for 1 hr with PBS containing 5% fetal bovine serum (blocking buffer), the monolayers were incubated at room temperature for 1 hr with 10 μg/ml of a mouse anti-FLAG M2-alkaline phosphatase (AP)-conjugate (Sigma) in blocking buffer or 10 μg/ml of the chimeric recombinant antibodies (H12 or B8). […] Following washes in blocking buffer, the AP activity in all the wells was detected using Fast Red AS-MX substrate (Sigma). […]

B1: BLV1H12-IL8: human IL-8 (amino acids 26-99) replacing the knob domain of BLV1H12; heavy chain variable region SEQ ID NO: 38 (antibody)
VH: QVQLRESGPSLVKPSQTLSLTCTASGFSLSDKAVGWVRQAPGKALEWLGSIDTGGNTGYNPGLKSRLSITKDNSKSQVSLSVSSVTTEDSATYYCTSVHQETKKYQSPRSAKELRCQCIKTYSKPFHPKFIKELRVIESGPHCANTEIIVKLSDGRELCLDPKENWVQRVVEKFLKRAENSGSGSYTYNYEWHVDVWGQGLLVTV
light: QAVLNQPSSVSGSLGQRVSITCSGSSSNVGNGYVSWYQLIPGSAPRTLIYGDTSRASGVPDRFSGSRSGNTATLTISSLQAEDEADYFCASAEDSSSNAVFGSGTTLTVLGQPKSPPSVTLFPPSTEELNGNKATLVCLISDFYPGSVTVVWKADGSTITRNVETTRASKQSNSKYAASSYLSLTSSDWKSKGSYSCEVTHEGSTVTKTVKPSECS
Parental U2OS
  Median Arbitrary Fluorescence Units (AFU): 76 AFU
CXCR1-U2OS
  ratio of median fluorescence (IgG binding) of CXCR1-U2OS cells versus U2OS parental cells: has specificity for CXCR1
CXCR1-U2OS; CXCR1-U2OS cells, cell culture supernatant containing expressed IgG, anti-Human Fc detection
  Median Arbitrary Fluorescence Units (AFU): 707 AFU

B2: bGCSF: bovine G-CSF (granulocyte colony-stimulating factor) (protein, listed as Bos taurus)
chain: TPLGPARSLPQSFLLKCLEQVRKIQADGAELQERLCAAHKLCHPEELMLLRHSLGIPQAPLSSCSSQSLQLTSCLNQLHGGLFLYQGLLQALAGISPELAPTLDTLQLDVTDFATNIWLQMEDLGAAPAVQPTQGAMPTFTSAFQRRAGGVLVASQLHRFLELAYRGLRYLAEP
modifications: bGCSF
Mouse NFS-60 cells; 0.09145 ng/mL
  F.I. (AlamarBlue fluorescence at 595 nm, cell viability): 1214
Mouse NFS-60 cells; 0.27435 ng/mL
  F.I. (AlamarBlue fluorescence at 595 nm, cell viability): 1360.925
Mouse NFS-60 cells; 0.82305 ng/mL
  F.I. (AlamarBlue fluorescence at 595 nm, cell viability): 1761
Mouse NFS-60 cells; 2.46914 ng/mL
  F.I. (AlamarBlue fluorescence at 595 nm, cell viability): 2101
Mouse NFS-60 cells; 7.40741 ng/mL
  F.I. (AlamarBlue fluorescence at 595 nm, cell viability): 2405
Mouse NFS-60 cells; 22.22222 ng/mL
  F.I. (AlamarBlue fluorescence at 595 nm, cell viability): 2646
Mouse NFS-60 cells; 66.66667 ng/mL
  F.I. (AlamarBlue fluorescence at 595 nm, cell viability): 2812.098
Mouse NFS-60 cells; 200 ng/mL
  F.I. (AlamarBlue fluorescence at 595 nm, cell viability): 3087.144
Mice neutrophils
  Percentage of Neutrophil: 16.48
[1]; 0.5 hour
  Percentage (normalized to maximal concentration at the first time point, 30 min): 100.00%
[1]; 1 hour
  Percentage (normalized to maximal concentration at the first time point, 30 min): 79.52%
[1]; 3 hour
  Percentage (normalized to maximal concentration at the first time point, 30 min): 56.81%
[1]; 6 hour
  Percentage (normalized to maximal concentration at the first time point, 30 min): 14.94%
[1]; 24 hour
  Percentage (normalized to maximal concentration at the first time point, 30 min): 4.08%
[1]; 48 hour
  Percentage (normalized to maximal concentration at the first time point, 30 min): 0.00%
[1]; 72 hour
  Percentage (normalized to maximal concentration at the first time point, 30 min): 0.00%
Human mPB CD34+ cells; 0.55886 ng/mL
  Number of CD45RA− CD41−: 7354
Human mPB CD34+ cells; 1.67657 ng/mL
  Number of CD45RA− CD41−: 9776
Human mPB CD34+ cells; 5.02972 ng/mL
  Number of CD45RA− CD41−: 12700
Human mPB CD34+ cells; 15.08916 ng/mL
  Number of CD45RA− CD41−: 13200
Human mPB CD34+ cells; 45.26749 ng/mL
  Number of CD45RA− CD41−: 13700
Human mPB CD34+ cells; 135.80247 ng/mL
  Number of CD45RA− CD41−: 13300
Human mPB CD34+ cells; 407.40741 ng/mL
  Number of CD45RA− CD41−: 13700
Human mPB CD34+ cells; 1222.22222 ng/mL
  Number of CD45RA− CD41−: 14100
Human mPB CD34+ cells; 3666.66667 ng/mL
  Number of CD45RA− CD41−: 13100
Human mPB CD34+ cells; 11000 ng/mL
  Number of CD45RA− CD41−: 13800

B3: hGCSF: human G-CSF (protein, UniProt P09919 31-207, looked up)
Granulocyte …: TPLGPASSLPQSFLLKCLEQVRKIQGDGAALQEKLVSECATYKLCHPEELVLLGHSLGIPWAPLSSCPSQALQLAGCLSQLHSGLFLYQGLLQALEGISPELGPTLDTLQLDVADFATTIWQQMEELGMAPALQPTQGAMPAFASAFQRRAGGVLVASHLQSFLEVSYRVLRHLAQP
Mouse NFS-60 cells; 0.09145 ng/mL
  F.I. (AlamarBlue fluorescence at 595 nm, cell viability): 1266.554
Mouse NFS-60 cells; 0.27435 ng/mL
  F.I. (AlamarBlue fluorescence at 595 nm, cell viability): 1478.287
Mouse NFS-60 cells; 0.82305 ng/mL
  F.I. (AlamarBlue fluorescence at 595 nm, cell viability): 1752.216
Mouse NFS-60 cells; 2.46914 ng/mL
  F.I. (AlamarBlue fluorescence at 595 nm, cell viability): 2224.028
Mouse NFS-60 cells; 7.40741 ng/mL
  F.I. (AlamarBlue fluorescence at 595 nm, cell viability): 2587.222
Mouse NFS-60 cells; 22.22222 ng/mL
  F.I. (AlamarBlue fluorescence at 595 nm, cell viability): 2751.249
Mouse NFS-60 cells; 66.66667 ng/mL
  F.I. (AlamarBlue fluorescence at 595 nm, cell viability): 2815.37
Mouse NFS-60 cells; 200 ng/mL
  F.I. (AlamarBlue fluorescence at 595 nm, cell viability): 2948.509
Human mPB CD34+ cells; 0.05081 ng/mL
  Number of CD45RA− CD41−: 4175
Human mPB CD34+ cells; 0.15242 ng/mL
  Number of CD45RA− CD41−: 3651
Human mPB CD34+ cells; 0.45725 ng/mL
  Number of CD45RA− CD41−: 3671
Human mPB CD34+ cells; 1.37174 ng/mL
  Number of CD45RA− CD41−: 4299
Human mPB CD34+ cells; 4.11523 ng/mL
  Number of CD45RA− CD41−: 5900
Human mPB CD34+ cells; 12.34568 ng/mL
  Number of CD45RA− CD41−: 7784
Human mPB CD34+ cells; 37.03704 ng/mL
  Number of CD45RA− CD41−: 10500
Human mPB CD34+ cells; 111.11111 ng/mL
  Number of CD45RA− CD41−: 12200
Human mPB CD34+ cells; 333.33333 ng/mL
  Number of CD45RA− CD41−: 14100
Human mPB CD34+ cells; 1000 ng/mL
  Number of CD45RA− CD41−: 13900

B4: H12 (protein, listed as Bos taurus)
chain: CVIVHQKTTQQSSCPAGFRDCVACTPGPESCCRSGCDGARRRVGLRYFFDSTSPITTYTYEHHIDAW
modifications: H12
[2]; HEK293A cells transfected with the NS2-3 non-structural proteins of BVDV
  binding to HEK293A cells transfected with NS2-3: binds NS2-3 on cells; also recorded: strongly binds
[2]; untransfected HEK293A cells
  binding to untransfected cells: weakly bound

From patent US20140050720A1, “ULTRALONG COMPLEMENTARITY DETERMINING REGIONS AND USES THEREOF” (THE SCRIPPS RESEARCH INSTITUTE, priority 2012, published 2014)
